The results in this text go back to patent publication US10124035B2, “DISC-1 pathway activators in the control of neurogenesis” (Massachusetts Institute of Technology, priority 2008, dated 2018).

Test [1] deals with adult hippocampal progenitor (AHP) cells. Kind of test: AHP cell proliferation, BrdU labeling and mitotic index. In kind it is cell-based. The settings on record: Wnt3a 200 ng/ml. The text has this:
(§1) • Mice. Swiss Webster pregnant female mice were purchased from Taconic (Hudson, N.Y.). • Cell Culture. AHPs were kindly provided by Dr. Gage (Lie, D. C. et al. Wnt signaling to regulates adult hippocampal neurogenesis. Nature 437, 1370-5 (2005)) and cultured under conditions described previously (Palmer, T. D., Takahashi, J. & Gage, F. H. The adult rat hippocampus contains primordial neural stem cells. Mol Cell Neurosci 8, 389-404 (1997)). Primary neural progenitors were isolated from E14 mouse embryos and cultured as described previously (Sanada, K. & Tsai, L. H. G protein betagamma subunits and AGS3 control spindle orientation and asymmetric cell fate of cerebral cortical progenitors. Cell 122, 119-31 (2005)). N2a and 293T cells were cultured in DMEM medium containing 10% FBS, L-glutamine, and penicillin/streptomycin. Wnt3a expressing L cells and untransfected L cells were obtained from ATCC (Manassas, Va.). Wnt3a conditional medium was produced according to the ATCC protocol. To induce AHP differentiation, FGF2 was removed from the culture medium and 1 μM retinoic acid/1% FBS was added to the medium for 4 days. • Reagents. Recombinant Wnt3a protein was obtained from Chemicon (Rosemont, Ill.). FGF2 was obtained from PeproTech (Rocky Hill, N.J.). Recombinant GST-GSK3β was obtained from Active Motif (Carlsbad, Calif.). […]
In general terms: Uptake of a labelled nucleoside into DNA is a usual measure of proliferation.

Test [2] addresses T1, His-GSK3β (Homo sapiens, UniProt P49841).
T1 construct: purchased Sigma-Aldrich (St. Louis, Mo.)
Kind of test: In vitro association (GST pull-down) with purified His-GSK3β. In kind it is binding. The settings on record: GST-tagged DISC1 fragments, in vitro association assay.
Source text: as §1

In test [3] the target is T2, GSK3β (Homo sapiens, UniProt P49841).
T2 construct: GST; purchased Active Motif (Carlsbad, Calif.)
T2 sequence (P49841 whole entry): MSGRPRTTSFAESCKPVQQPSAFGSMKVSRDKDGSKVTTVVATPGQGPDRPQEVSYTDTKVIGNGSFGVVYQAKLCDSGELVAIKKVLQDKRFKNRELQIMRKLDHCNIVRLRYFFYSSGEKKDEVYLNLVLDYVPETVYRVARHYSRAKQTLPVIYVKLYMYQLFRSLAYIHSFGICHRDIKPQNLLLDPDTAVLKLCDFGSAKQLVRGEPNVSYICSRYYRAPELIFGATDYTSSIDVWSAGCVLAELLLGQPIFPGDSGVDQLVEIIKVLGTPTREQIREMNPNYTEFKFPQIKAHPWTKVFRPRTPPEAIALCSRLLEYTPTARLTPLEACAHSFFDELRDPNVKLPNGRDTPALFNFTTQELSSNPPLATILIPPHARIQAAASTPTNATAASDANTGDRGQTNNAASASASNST
Kind of test: GSK3β in vitro kinase assay (β-catenin/axin phosphorylation, Y216 autophosphorylation). It counts as biochemical. The settings on record: for inhibition of GSK3β activity by DISC1 fragments: no single concentration, dose dependence, rank. The text has this:
• Mice. Swiss Webster pregnant female mice were purchased from Taconic (Hudson, N.Y.). • Cell Culture. AHPs were kindly provided by Dr. Gage (Lie, D. C. et al. Wnt signaling to regulates adult hippocampal neurogenesis. Nature 437, 1370-5 (2005)) and cultured under conditions described previously (Palmer, T. D., Takahashi, J. & Gage, F. H. The adult rat hippocampus contains primordial neural stem cells. Mol Cell Neurosci 8, 389-404 (1997)). Primary neural progenitors were isolated from E14 mouse embryos and cultured as described previously (Sanada, K. & Tsai, L. H. G protein betagamma subunits and AGS3 control spindle orientation and asymmetric cell fate of cerebral cortical progenitors. Cell 122, 119-31 (2005)). N2a and 293T cells were cultured in DMEM medium containing 10% FBS, L-glutamine, and penicillin/streptomycin. Wnt3a expressing L cells and untransfected L cells were obtained from ATCC (Manassas, Va.). Wnt3a conditional medium was produced according to the ATCC protocol. To induce AHP differentiation, FGF2 was removed from the culture medium and 1 μM retinoic acid/1% FBS was added to the medium for 4 days. • Reagents. Recombinant Wnt3a protein was obtained from Chemicon (Rosemont, Ill.). FGF2 was obtained from PeproTech (Rocky Hill, N.J.). Recombinant GST-GSK3β was obtained from Active Motif (Carlsbad, Calif.). Recombinant GST-β-catenin and GST-axin were obtained from Millipore (Billerica, Mass.). The GSK313 inhibitor, SB-216763, AR-A104418 and His-GSK3β, were obtained from Sigma-Aldrich (Sigma-Aldrich, St. Louis, Mo.). L803-MTS was obtained from Calbiochem (San Diego, Calif.). GST-AKT1 was obtained from Cell Signaling (Beverly, Mass.). GST-CASK-1 (CASK fragment from 316-415aa), GST-CASK-2 (CASK fragment from 777-974aa), and GST-p25 proteins were kindly provided by Dr. B. A. Samuels. Mouse DISC1 peptidel (40-78aa: GYMRSTAGSG IGFLSPAVGMPHPSSAG LTGQQSQHSQS; SEQ ID NO: 1) and Mouse DISC1 peptide 2 (195-238aa, […] GERGEAEGCLPSREAE; SEQ ID NO: 2) were synthesized by Chi Scientific (Maynard, Mass.). • Antibodies. The primary antibodies used in this study were the following: rabbit anti-DISC1 C-terminal antibody, mouse and rabbit anti-GFP antibodies (Invitrogen, Carlsbad, Calif.); affinity purified rabbit anti-DISC1 antibody (Novus, Littleton, Colo.) for immunohistochemistry; mouse anti-FLAG and mouse anti-Actin antibody; mouse anti-GSK3β antibody, mouse anti-β-catenin antibody, mouse anti-pY216 GSK3β antibody, and mouse anti-nestin antibody (BD Biosciences, San Diego, Calif.); rabbit anti-[…] β-catenin antibody, rabbit anti-pS9 GSK3β antibody, and mouse anti-cyclin to D1 antibody (Cell Signaling); mouse anti-Dv12 antibody, mouse anti-HA antibody, mouse anti-GST antibody, mouse anti-ubiquitin antibody, and rabbit anti-β-catenin antibody (Santa Cruz, Santa Cruz, Calif.); mouse Tuj-1 antibody (BABCO, Harrisburg, Pa.); mouse anti-BrdU antibody (DakoCytomation, Glostrup, Denmark); guinea pig anti-doublecortin antibody (Chemicon, Rosemont, Ill.); chicken anti-GFP antibody (Ayes Labs, Tigard, Oreg.); rabbit anti-pS10 Histone H3 antibody (Upstate, Lake Placid, N.Y.). • Constructs. The sequences for shRNAs targeting DISC1 are as follows: control shRNA: 5′-CGGCTGAAACAAGAGTTGG-3′ (SEQ ID NO:3); DISC1 shRNA-1: 5′-GGCAAACACTGTGA AGT GC-3′ (SEQ ID NO:4); DISC1 shRNA-2: 5′-[…]-3′ (SEQ ID NO:5)(Kamiya A. et al. A schizophrenia-associated mutation of DISC1 perturbs cerebral cortex development. Nat. Cell Biol 7, 1167-78 (2005)). DISC1 shRNA-1 recognizes both rat and mouse DISC1. […]

“Also recorded” adds a separate entry of the source.

T1 sequence (P49841 whole entry): as above

B1: Wnt3a: Recombinant Wnt3a protein obtained from Chemicon (protein, UniProt P56704 19-352, looked up)
Protein Wnt-3a: SYPIWWSLAVGPQYSSLGSQPILCASIPGLVPKQLRFCRNYVEIMPSVAEGIKIGIQECQHQFRGRRWNCTTVHDSLAIFGPVLDKATRESAFVHAIASAGVAFAVTRSCAEGTAAICGCSSRHQGSPGKGWKWGGCSEDIEFGGMVSREFADARENRPDARSAMNRHNNEAGRQAIASHMHLKCKCHGLSGSCEVKTCWWSQPDFRAIGDFLKDKYDSASEMVVEKHRESRGWVETLRPRYTYFKVPTERDLVYYEASPNFCEPNPETGSFGTRDRTCNVSSHGIDGCDLLCCGRGHNARAERRREKCRCVFHWCCYVSCQECTRVYDVHTCK
Consider B1, for which the “proliferation of AHPs” value in test [1] was “significantly stimulated proliferation of AHPs”.

B2: DISC1 fragment 356-595: GST-tagged mouse DISC1 protein fragment, amino acids 356-595 (protein, UniProt Q811T9 356-595, looked up, fragment)
chain: LKLQKCQEKVVEDGDYDTAETLRQRLEELEQEKGRLSWALPSQQPALRSFLGYLAAQIQVALHGATQRAGSDDPEAPLEGQLRTTAQDSLPASITRRDWLIREKQRLQKEIEALQARMSALEAKEKRLSQELEEQEVLLRWPGCDLMALVAQMSPGQLQEVSKALGETLTSANQAPFQVEPPETLRSLRERTKSLNLAVRELTAQVCSGEKLCSSLRRRLSDLDTRLPALLEAKMLALSG
modifications: GST tag
Take B2: the “interaction with purified His-GSK3β” value in test [2] is on record as “strong interactions; also recorded: directly associate with purified GSK3β; also recorded: interacts directly”. For the same molecule, in test [3] (GST-DISC1 fragments at 2 μM), the “inhibition of GSK3β autophosphorylation (Y216)” value is reported as “started to inhibit GSK3β autophosphorylation”. In test [3], the “inhibition of GSK3β activity by DISC1 fragments” value is “able to inhibit GSK3 activity”.

B3: DISC1 fragment 1-220: GST-tagged mouse DISC1 protein fragment, amino acids 1-220 (protein)
chain: MQGGGPRGAPIHSPSHGADSGHGLPPAVAPQRRRLTRRPGYMRSTAGSGIGFLSPAVGMPHPSSAGLTGQQSQHSQSKAGQCGLDPGSHCQASLVGKPFLKSSLVPAVASEGHLHPAQRSMRKRPVHFAVHSKNDSRQSERLTGSFKPGDSGFWQELLSSDSFKSLAPSLDAPWNKGSRGLKTVKPLASPALNGPADIASLPGFQDTFTSSFSFIQLSLG
modifications: left off: a dimerising Fc or GST
In the case of B3, the “interaction with purified His-GSK3β” value in test [2] is reported as “strong interactions; also recorded: directly associate with purified GSK3β; also recorded: interacts directly”. For the same molecule, in test [3] (GST fusion proteins at 0.5 μM), the “inhibition of β-catenin, axin and GSK3β phosphorylation” value was “potently inhibited β-catenin, axin and GSK3β phosphorylation”. The “inhibition of GSK3β Y216 phosphorylation” value in test [3] (at 0.1 μM) is “no inhibition”; in test [3] (at 1 μM), “plateaued”. Moreover, the “inhibition of GSK3β activity by DISC1 fragments” value in test [3] is on record as “able to inhibit GSK3 activity; also recorded: most potent in inhibiting GSK3 activity; also recorded: most potent inhibitory activity on GSK3β; also recorded: dose-dependent”.
